Results published in publication PMC10786891, “Massively parallel profiling of RNA-targeting CRISPR-Cas13d”.
Numbering of substitutions follows the chain as printed. Names may count otherwise.

T1: EsCas13d, nuclease-dead (Eubacterium siraeum, UniProt B0MS50, R295A;H300A;R849A;H854A)
T1 sequence: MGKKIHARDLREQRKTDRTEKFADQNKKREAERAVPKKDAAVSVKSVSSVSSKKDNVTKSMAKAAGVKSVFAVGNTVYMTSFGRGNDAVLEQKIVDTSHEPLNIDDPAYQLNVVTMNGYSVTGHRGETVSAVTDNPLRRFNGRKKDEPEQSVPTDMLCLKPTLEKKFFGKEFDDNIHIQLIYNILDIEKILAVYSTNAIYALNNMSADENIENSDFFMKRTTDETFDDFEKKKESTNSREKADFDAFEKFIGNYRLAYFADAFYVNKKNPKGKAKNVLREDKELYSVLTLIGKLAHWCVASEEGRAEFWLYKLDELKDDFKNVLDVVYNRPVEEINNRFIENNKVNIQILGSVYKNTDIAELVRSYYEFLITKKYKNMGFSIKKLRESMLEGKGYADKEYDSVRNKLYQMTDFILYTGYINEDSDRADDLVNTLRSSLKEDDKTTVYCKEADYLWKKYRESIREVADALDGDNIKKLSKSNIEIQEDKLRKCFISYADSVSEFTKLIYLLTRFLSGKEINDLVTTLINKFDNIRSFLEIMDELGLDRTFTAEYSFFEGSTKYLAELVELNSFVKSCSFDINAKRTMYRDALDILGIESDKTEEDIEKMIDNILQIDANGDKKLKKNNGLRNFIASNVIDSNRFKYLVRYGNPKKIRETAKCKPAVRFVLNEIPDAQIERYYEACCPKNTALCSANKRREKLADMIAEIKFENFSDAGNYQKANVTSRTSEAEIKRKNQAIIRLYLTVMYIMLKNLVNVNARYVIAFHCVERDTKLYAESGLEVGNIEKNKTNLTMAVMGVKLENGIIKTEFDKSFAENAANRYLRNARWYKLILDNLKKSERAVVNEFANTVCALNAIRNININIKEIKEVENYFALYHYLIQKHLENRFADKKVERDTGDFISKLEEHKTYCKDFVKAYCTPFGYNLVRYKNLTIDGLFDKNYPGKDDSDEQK

B1: target 1 insC 3' of 14,insC 3' of 1 (mixed)
RNA 1: CACCCGUGCAAAAAUGCAGGGGUCUAAAACUGAGCGGAUAACCUCUCUAUGG
RNA 2: GGGAAUGGAUCCACAUCUACGAAUUCGUACCAUAGAGACGGUUAUCCGCUCACCCGAGAUCGGAAGAGCACACGU
B2: target 1 U8C,U19A (mixed)
RNA 1: B1 RNA 1
RNA 2: GGGAAUGGAUCCACAUCUACGAAUUCGUACCAAAGAGAGGUUACCCGCUCACCGAGAUCGGAAGAGCACACGU
B3: target 1 C4G (mixed)
RNA 1: B1 RNA 1
RNA 2: B2 RNA 2 with A33U, C44U, C48G
B4: target 1 A1C,C4G (mixed)
RNA 1: B1 RNA 1
RNA 2: B2 RNA 2 with A33U, C44U, C48G, A51C
B5: target 1 del3 (mixed)
RNA 1: B1 RNA 1
RNA 2: GGGAAUGGAUCCACAUCUACGAAUUCGUACCAUAGAGAGGUUAUCCGCCACCGAGAUCGGAAGAGCACACGU
B6: target 1 insC 3' of 14,insU 3' of 1 (mixed)
RNA 1: B1 RNA 1
RNA 2: B1 RNA 2 with C53U
B7: target 1 C2U,U8G (mixed)
RNA 1: B1 RNA 1
RNA 2: B2 RNA 2 with A33U, C44G, C50U
B8: target 1 A1G,C4G (mixed)
RNA 1: B1 RNA 1
RNA 2: B2 RNA 2 with A33U, C44U, C48G, A51G
B9: target 1 A9C,U10C (mixed)
RNA 1: B1 RNA 1
RNA 2: B2 RNA 2 with A33U, U42C, A43C, C44U
B10: target 1 complement block 5-9 (mixed)
RNA 1: B1 RNA 1
RNA 2: B2 RNA 2 with A33U, A43U, C44A, C45G, C46G, G47C
B11: target 1 insC 3' of 15,insC 3' of 10 (mixed)
RNA 1: B1 RNA 1
RNA 2: GGGAAUGGAUCCACAUCUACGAAUUCGUACCAUAGAGCAGGUUCAUCCGCUCACCGAGAUCGGAAGAGCACACGU
B12: target 1 A1U,C4G (mixed)
RNA 1: B1 RNA 1
RNA 2: B2 RNA 2 with A33U, C44U, C48G, A51U
B13: target 1 insU 3' of 12,insA 3' of 3 (mixed)
RNA 1: B1 RNA 1
RNA 2: B1 RNA 2 with C39G, G41U, C51A, A52C, C53A
B14: target 1 del2,del7 (mixed)
RNA 1: B1 RNA 1
RNA 2: GGGAAUGGAUCCACAUCUACGAAUUCGUACCAUAGAGAGGUUAUCGCUACCGAGAUCGGAAGAGCACACGU
B15: target 1 U11G,C21U (mixed)
RNA 1: B1 RNA 1
RNA 2: B2 RNA 2 with C31U, A33U, U41G, C44U
B16: target 1 U3G,C4A (mixed)
RNA 1: B1 RNA 1
RNA 2: B2 RNA 2 with A33U, C44U, C48A, U49G

Molecular target: T1, EsCas13d, nuclease-dead
Assay: crRNA (strand 1, pre-loaded); Mg2+; 40 mM Tris-HCl pH 7.5, 150 mM NaCl, 6 mM MgCl2, 1 mM DTT, 0.1% Tween-20, 0.2 mg/ml BSA; 25 C; 10 min per concentration, then washed
Conditions: tags: His6-TwinStrep-SUMO cleaved; N-terminal SNAP kept (SNAP-Surface 488); label: 3' end held by stalled T7 RNA polymerase

Binder | Kd
B1 | 50 ± 11 nM
B2 | 59 ± 9 nM
B3 | 5.3 ± 0.8 nM
B4 | 10.7 ± 1 nM
B5 | 28 ± 5 nM
B6 | ~50 nM
B7 | 17.1 ± 0.9 nM
B8 | 5.2 ± 0.34 nM
B9 | 15.1 ± 1.5 nM
B10 | 17.2 ± 0.7 nM
B11 | 17.3 ± 1.1 nM
B12 | 6.11 ± 0.25 nM
B13 | 5.8 ± 0.4 nM
B14 | 6.62 ± 0.24 nM
B15 | 9.4 ± 0.5 nM
B16 | 4.19 ± 0.3 nM
